Test results taken from patent US20250282874A1 (SUZHOU TRANSCENTA THERAPEUTICS, published 2025).
Where two headings read alike, the source gives them in different places.

Columns and labels:
[1] = target: T1, human PD-L1 expressed on cells (human, UniProt Q9NZQ7 19-290); assay: cell-based or functional assay
[2] = target: T1, human PD-L1 expressed on cells; assay: cell-based or functional assay; remark: listed apart in the source
[3] = target: T1, human PD-L1 expressed on cells; assay: cell-based or functional assay; remark: listed apart in the source
[4] = target: T1, human PD-L1 expressed on cells; assay: flow cytometry on NCI-H292 cells, Mean FITC-A
[5] = target: T1, human PD-L1 expressed on cells; assay: flow cytometry on NCI-H460 cells, Mean FITC-A
[6] = target: T2, hPD-L1 (Acro Biosystems, PD1-H5229) (human, UniProt Q9NZQ7 19-238); assay: ELISA, hPD-L1 coated, anti-human Fc-HRP, OD450
T2 construct: also called human PD-L1; hPD-L1 protein

[7] = target: T2, hPD-L1 (Acro Biosystems, PD1-H5229); assay: ELISA, hPD-L1 coated, anti-human Fc-HRP, OD450; remark: listed apart in the source
Protocol: Then 300 μL of 2% (w/v) BSA was added for blocking at room temperature for 1 h. […] After incubation at room temperature for 1 h, mixed TMB substrate reagent (InnoReagents, TMB-S-003) was added and incubated at room temperature for 5 min, and stopped by adding 0.1M H₂SO₄. OD450 nm was recorded by Microplate Reader. The data was analyzed by Graphpad prism.

[8] = target: T1, human PD-L1 expressed on cells; assay: flow cytometry on MC38/hPD-L1 cells, Mean FITC-A
[9] = target: T1, human PD-L1 expressed on cells; assay: flow cytometry on EMT6/hPD-L1 cells, Mean FITC-A
[10] = target: T1, human PD-L1 expressed on cells; assay: flow cytometry on activated human T cells, Mean FITC-A
[11] = target: T1, human PD-L1 expressed on cells; assay: flow cytometry on 293T-PD-L1-CD3L cells, Mean FITC-A as printed
Protocol: The cell was transfected with both human PD-L1 and anti-CD3 scFv. […] After centrifugation and removing the supernatant, the diluted antibodies were added to the plate and incubated in 4° C. for 30 min. […] After washing, cells were resuspended in 200 μL PBS and analyzed by flow cytometry. The data was analyzed by Graphpad prism.

[12] = target: T1, human PD-L1 expressed on cells; assay: flow cytometry on PHA-activated human PBMC (T cells), Mean APC-A
Protocol: Human PBMC (TPCS, Cat #PB025C) was recovered from liquid nitrogen and resuspended in RPMIi640 with 10% FBS. 5 μg/mL PHA (Sigma, Cat #L8902) was added to stimulate PBMC activation and cells were cultured for 3 days. […] After centrifugation and removal of the supernatant in the plate, the diluted antibodies were added to the plate with the activated PBMC and incubated in 4° C. for 1 hour. […] After washing, cells were resuspended in 150 μL PBS and analyzed by flow cytometry.

[13] = target: T1, human PD-L1 expressed on cells; assay: flow cytometry on 293T-PD-L1-CD3L cells, PE anti-human IgG, Mean PE-A
Protocol: After centrifugation and removing the supernatant, the diluted antibodies were added to the plate and incubated in 4° C. for 30 min. […] After washing, cells were resuspended in 200 μL PBS and analyzed by flow cytometry. The data was analyzed by Graphpad prism.

[14] = target: cynomolgus PD-L1 on activated cynomolgus T cells (cynomolgus, UniProt G7PSE7 19-290); assay: flow cytometry on PHA-activated cynomolgus PBMC (T cells), Mean APC-A
Protocol: Human or cynomolgus PBMC (TPCS, Cat #PB025C) was recovered from liquid nitrogen and resuspended in RPMIi640 with 10% FBS. 5 μg/mL PHA (Sigma, Cat #L8902) was added to stimulate PBMC activation and cells were cultured for 3 days. […] After centrifugation and removal of the supernatant in the plate, the diluted antibodies were added to the plate with the activated PBMC and incubated in 4° C. for 1 hour. […] After washing, cells were resuspended in 150 μL PBS and analyzed by flow cytometry.

human TGFβ1 = target: T3, human TGFβ1 (human, UniProt P01137 279-390); assay: bridging ELISA, hTGFβ-1 coated, detected with hPD-L1-biotin and streptavidin-HRP
T3 construct: also called hTGFβ-1; TGFb1
Protocol: 0.5 μg/mL hTGFβ-1 was coated to the ELISA plate and left overnight at 4° C. Then 300 µL of blocking buffer was added for blocking at room temperature for 1 h. […] 1h later, 100 μL HRP-conjugated streptavidin (1:5000) was added. After incubation at room temperature for 1 h, mixed TMB substrate reagent (InnoReagents, TMB-S-003) was added and incubated at room temperature for 5 min, and stopped by adding 0.1M H₂SO₄. OD450 nm was recorded by Microplate Reader.

human PD-L1-Fc = target: T4, human PD-L1-Fc (human, UniProt Q9NZQ7 19-239); assay: competition ELISA, hPD-L1-Fc coated; blocked ligand hPD-1-Fc-biotin, OD450
T4 construct: also called hPD-L1-Fc; human PD-L1-Fc (Sino Biological, 70110-D02H); not shown: Fc part

cynoPD-L1-Fc = cynoPD-L1-Fc (cynomolgus, UniProt G7PSE7 19-238, Fc carrier is left out of the letters.); assay: competition ELISA, cynoPD-L1-Fc coated; blocked ligand cyno PD-1-Fc-biotin, OD450
Sequence of cynoPD-L1-Fc (G7PSE7 entry or part of it limits assumed): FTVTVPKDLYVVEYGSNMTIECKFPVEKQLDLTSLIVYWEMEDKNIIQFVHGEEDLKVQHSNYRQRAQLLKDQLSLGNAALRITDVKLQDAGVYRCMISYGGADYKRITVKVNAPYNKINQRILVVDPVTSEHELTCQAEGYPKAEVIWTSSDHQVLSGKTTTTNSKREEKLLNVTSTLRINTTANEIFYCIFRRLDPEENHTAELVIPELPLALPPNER
Protocol: 300 μL of 3% (w/v) skim milk was added for blocking at room temperature for 1 h. […] 0.5% PBS+Tween-20 were used for washing for 3 times, and 100 μL HRP-conjugated streptavidin (1:5000) was added.

Sequence of cynomolgus PD-L1 on activated cynomolgus T cells (G7PSE7 entry or part of it limits assumed): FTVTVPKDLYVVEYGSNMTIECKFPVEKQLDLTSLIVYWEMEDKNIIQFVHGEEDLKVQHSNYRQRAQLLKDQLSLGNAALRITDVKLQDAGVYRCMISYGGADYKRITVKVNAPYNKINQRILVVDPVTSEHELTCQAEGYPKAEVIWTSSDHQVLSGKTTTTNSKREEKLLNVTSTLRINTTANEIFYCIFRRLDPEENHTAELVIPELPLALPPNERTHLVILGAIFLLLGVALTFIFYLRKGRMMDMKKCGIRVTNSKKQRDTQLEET
T3 sequence (P01137 279-390 limits assumed): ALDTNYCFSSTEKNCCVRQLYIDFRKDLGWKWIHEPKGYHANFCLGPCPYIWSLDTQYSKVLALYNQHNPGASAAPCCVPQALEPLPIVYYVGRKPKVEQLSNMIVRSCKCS

B1: AM4B6-hIgG1 monoclonal antibody (antibody, V domains shown)
VH: QVQLVQSGAEVKKPGASVKVSCKASGYVFTDYYMNWVRQAPGQSLEWMGDINPNNAETLYNHKFKGRVTVTVDKSISTAYMELSRLRSDDTAVYYCVKWGDGPFAYWGQGTLVTVSS
VL: DIQMTQSPSSLSASVGDRVTITCKASQNVGAAVAWYQQKPGKAPKLLIYSVSDRYTGVPSRFSGSGSGTDFTLTISSLQPEDIATYYCQQYSNYPTFGQGTKLEIK
notes: hIgG1; also called AM4B6 mAb; AM4B6 monoclonal antibody
[1]
  IC50 (so in the source), NFAT-luciferase luminescence, hPD-L1/hPD-1 reporter cell assay: 0.714 nM
[2]
  IC50 (so in the source), NFAT-luciferase luminescence, 293T-PD-L1-CD3L cells with Jurkat-NFAT-Luc-PD1 cells: 1.08 nM
[3]
  IC50 (so in the source), luminescence (axis printed OD450), 293T-PD-L1-CD3L cells with Jurkat-NFAT-Luc-PD1 cells: 0.994 nM
[4]
  EC50: 0.199 nM
[5]
  EC50: 0.222 nM
[6]
  EC50: 0.0313 nM
[7]
  EC50: 0.0114 nM
[8]
  EC50: 0.299 nM
[9]
  EC50: 0.24 nM
[10]
  EC50: 0.16 nM
[11]
  EC50: 0.774 nM
[12]
  EC50: 0.267 nM
[13]
  EC50: 0.903 nM
[14]
  EC50: 0.684 nM
Human TGFβ1
  binding result: no binding (tested: 100 nM)
Human PD-L1-Fc
  IC50: 2.28 nM
cynoPD-L1-Fc
  IC50: 2.06 nM
